B1: Protein FAM83G (Homo sapiens), A6ND36 (parent)
chain: MAFSQVQCLDDNHVNWRSSESKPEFFYSEEQRLALEALVARGRDAFYEVLKRENIRDFLSELELKRILETIEVYDPGSEDPRGTGPSQGPEDNGVGDGEEASGADGVPIEAEPLPSLEYWPQKSDRSIPQLDLGWPDTIAYRGVTRASVYMQPPIDGQAHIKEVVRKMISQAQKVIAVVMDMFTDVDIFKDLLDAGFKRKVAVYIIVDESNVKYFLHMCERACMHLGHLKNLRVRSSGGTEFFTRSATKFKGALAQKFMFVDGDRAVCGSYSFTWSAARTDRNVISVLSGQVVEMFDRQFQELYLMSHSVSLKGIPMEKEPEPEPIVLPSVVPLVPAGTVAKKLVNPKYALVKAKSVDEIAKISSEKQEAKKPLGLKGPALAEHPGELPELLPPIHPGLLHLERANMFEYLPTWVEPDPEPGSDILGYINIIDPNIWNPQPSQMNRIKIRDTSQASAQHQLWKQSQDSRPRPEPCPPPEPSAPQDGVPAENGLPQGDPEPLPPVPKPRTVPVADVLARDSSDIGWVLELPKEEAPQNGTDHRLPRMAGPGHAPLQRQLSVTQDDPESLGVGLPNGLDGVEEEDDDDYVTLSDQDSHSGSSGRGPGPRRPSVASSVSEEYFEVREHSVPLRRRHSEQVANGPTPPPRRQLSAPHITRGTFVGPQGGSPWAQSRGREEADALKRMQAQRSTDKEAQGQQFHHHRVPASGTRDKDGFPGPPRYRSAADSVQSSTRNAGPAMAGPHHWQAKGGQVPRLLPDPGSPRLAQNARPMTDGRATEEHPSPFGIPYSKLSQSKHLKARTGGSQWASSDSKRRAQAPRDRKDP
B2: Protein FAM83C (Homo sapiens), Q9BQN1 (parent)
chain: MFGGPGPGVLGAQGMAGPLRGRVEELKLPWWRESSPLVLRHSEAARLAADALLERGEAAYLRVISEERELPFLSALDVDYMTSHVRGGPELSEAQGQEASGPDRLSLLSEVTSGTYFPMASDIDPPDLDLGWPEVPQATGFSPTQAVVHFQRDKAKNIKDLLRFLFSQAHTVVAVVMDIFTDMELLCDLMEASSRRGVPVYLLLAQEHLRHFLEMCYKMDLNGEHLPNMRVRSTCGDTYCSKAGRRFTGQALEKFVLIDCEQVVAGSYSFTWLCSQAHTSMVLQLRGRIVEDFDREFRCLYAESQPVEGFCGGEDPLSPRALRPPPVALAFRPDVPSPTSSLPSSTSLSSIKQSPLMGRSSYLALPGGGDCSDTGVVSSSLGPARREASGQPSLHRQLSDPNHGSPPGLYRANLGKLGAYPWSQSSPALNHNSTSPLTLAVGSPLLPRSRPLLQFHRGAPALSRFPENGLPGSQEPSPLRGRWVPGTTLETVEEKEKKASPSQSRGQLDLLVPFPRAREVGDPDSGVTPNSGPLRPGEQAPEDRRLSPSQADSQLDLLSRALGTGGAPELGSLRPGDRALEDRRLSLNQSRGQSDLLMQYPKAQGSRVPLETNSSARPARRAPDERRQTLGHSQLDLITKFGPFRGEGPGPNGLPISSPARTAGAGSGDEKRLTLGHSKLDLITKYHQLHGARQGTEPGGPKGGHLNGGNSDLVRDEKRLTLGHSKLDLITKYNKSKFKQLRSRFES
B3: Casein kinase I isoform alpha (Homo sapiens), P48729 (parent)
chain: MASSSGSKAEFIVGGKYKLVRKIGSGSFGDIYLAINITNGEEVAVKLESQKARHPQLLYESKLYKILQGGVGIPHIRWYGQEKDYNVLVMDLLGPSLEDLFNFCSRRFTMKTVLMLADQMISRIEYVHTKNFIHRDIKPDNFLMGIGRHCNKLFLIDFGLAKKYRDNRTRQHIPYREDKNLTGTARYASINAHLGIEQSRRDDMESLGYVLMYFNRTSLPWQGLKAATKKQKYEKISEKKMSTPVEVLCKGFPAEFAMYLNYCRGLRFEEAPDYMYLRQLFRILFRTLNHQYDYTFDWTMLKQKAAQQAASSSGQGQQAQTPTGKQTDKTKSNMKGF
B4: Protein FAM83F (Homo sapiens), Q8NEG4 (parent)
chain: MAESQLNCLDEAHVNEKVTEAQAAFYYCERRRAALEALLGGGEQAYRERLKEEQLRDFLSSPERQALRAAWSPYEDAVPAANARGKSKAKAKAPAPAPAESGESLAYWPDRSDTEVPPLDLGWTDTGFYRGVSRVTLFTHPPKDEKAPHLKQVVRQMIQQAQKVIAVVMDLFTDGDIFQDIVDAACKRRVPVYIILDEAGVKYFLEMCQDLQLTDFRIRNIRVRSVTGVGFYMPMGRIKGTLSSRFLMVDGDKVATGSYRFTWSSSHVDRNLLLLLTGQNVEPFDTEFRELYAISEEVDLYRQLSLAGRVGLHYSSTVARKLINPKYALVSGCRHPPGEMMRWAARQQREAGGNPEGQEEGASGGESAWRLESFLKDLVTVEQVLPPVEPIPLGELSQKDGRMVSHMHRDLKPKSREAPSRNGMGEAARGEAAPARRFSSRLFSRRAKRPAAPNGMASSVSTETSEVEFLTGKRPNENSSADISGKTSPSSAKPSNCVIS
B5: Casein kinase I isoform alpha (Homo sapiens), P48729 (parent)
chain: B3 chain
partner: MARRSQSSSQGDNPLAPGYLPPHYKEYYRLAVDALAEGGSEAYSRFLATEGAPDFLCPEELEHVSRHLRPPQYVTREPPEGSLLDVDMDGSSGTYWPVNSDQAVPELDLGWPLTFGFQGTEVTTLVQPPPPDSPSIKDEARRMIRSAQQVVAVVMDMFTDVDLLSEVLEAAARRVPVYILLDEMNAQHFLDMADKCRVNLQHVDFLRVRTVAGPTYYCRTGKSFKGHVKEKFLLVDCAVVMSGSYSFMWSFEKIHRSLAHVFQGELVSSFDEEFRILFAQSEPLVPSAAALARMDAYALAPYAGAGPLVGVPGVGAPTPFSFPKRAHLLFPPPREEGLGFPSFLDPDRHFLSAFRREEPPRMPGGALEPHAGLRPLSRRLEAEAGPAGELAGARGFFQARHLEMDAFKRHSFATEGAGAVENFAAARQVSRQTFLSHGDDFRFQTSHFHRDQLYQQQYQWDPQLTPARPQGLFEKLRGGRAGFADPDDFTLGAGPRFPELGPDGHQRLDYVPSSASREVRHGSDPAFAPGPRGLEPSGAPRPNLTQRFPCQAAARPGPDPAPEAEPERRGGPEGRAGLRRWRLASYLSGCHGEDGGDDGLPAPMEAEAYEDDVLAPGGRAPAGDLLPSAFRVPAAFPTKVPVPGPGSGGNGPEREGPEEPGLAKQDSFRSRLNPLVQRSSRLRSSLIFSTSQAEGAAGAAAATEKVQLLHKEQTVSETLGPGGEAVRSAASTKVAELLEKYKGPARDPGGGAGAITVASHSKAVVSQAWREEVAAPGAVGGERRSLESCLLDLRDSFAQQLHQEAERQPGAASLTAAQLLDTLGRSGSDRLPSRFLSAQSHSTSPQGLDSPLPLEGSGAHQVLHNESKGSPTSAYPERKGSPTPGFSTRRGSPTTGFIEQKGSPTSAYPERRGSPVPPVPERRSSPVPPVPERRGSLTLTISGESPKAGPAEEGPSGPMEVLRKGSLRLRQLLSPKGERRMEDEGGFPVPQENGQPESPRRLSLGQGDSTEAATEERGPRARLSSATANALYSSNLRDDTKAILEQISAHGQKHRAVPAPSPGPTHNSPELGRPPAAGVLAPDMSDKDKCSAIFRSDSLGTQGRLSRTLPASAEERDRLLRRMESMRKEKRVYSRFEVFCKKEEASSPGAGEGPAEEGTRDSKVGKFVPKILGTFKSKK
B6: Casein kinase I isoform alpha (Homo sapiens), P48729 (parent)
chain: B3 chain
partner: B1 chain
B7: Protein FAM83H (Homo sapiens), Q6ZRV2 (parent)
chain: B5 partner

Variants of: B1
Settings: with kc1a_human CSNK1A1, P48729

effect of a mutation on the interaction | Variant
disrupting interaction strength | F296A;F300A
disrupting interaction strength | F296A
with no effect | F300A

Variants of: B1
Settings: with kc1a_human CSNK1A1, P48729
Remark: another data set of the same source

effect of a mutation on the interaction | Variant
disrupting interaction strength | F300A
disrupting interaction strength | D262A

Variants of: B2
Settings: with kc1a_human CSNK1A1, P48729

effect of a mutation on the interaction | Variant
disrupting interaction strength | D259A
disrupting interaction strength | F293A

Variants of: B3
Settings: with fa83e_human FAM83E

effect of a mutation on the interaction | Variant
with no effect | N141A

Variants of: B3
Settings: with fa83f_human FAM83F

effect of a mutation on the interaction | Variant
with no effect | N141A

Variants of: B4
Settings: with kc1a_human CSNK1A1, P48729

effect of a mutation on the interaction | Variant
disrupting interaction strength | F284A
disrupting interaction strength | D250A

Variants of: B5
Settings: with fa83h_human FAM83H

effect of a mutation on the interaction | Variant
with no effect | N141A

Variants of: B6
Settings: with fa83g_human FAM83G

effect of a mutation on the interaction | Variant
with no effect | N141A

Variants of: B7
Settings: with kc1a_human CSNK1A1, P48729

effect of a mutation on the interaction | Variant
disrupting interaction strength | F270A
disrupting interaction strength | D236A

Variants of: B7
Settings: with kc1e_human CSNK1E

effect of a mutation on the interaction | Variant
disrupting interaction strength | F270A
disrupting interaction strength | D236A
